Laboratory results: paper PMC4632715

Target: FN3 monobody 2C12 (binder of MAP2K5), purified FLAG-tagged protein
Test: pull-down; 1 pmol each of four purified biotinylated targets spiked into HeLa cell lysate (10 µg), 10 pmol purified FLAG-tagged monobody, 2 h 4 °C; captured on anti-FLAG magnetic beads, RIPA washes; blot probed with streptavidin-IR dye

percent of input pulled down: 33%
B1: mitogen-activated protein kinase kinase 5 (MAP2K5), amino acids 5-108 (domain or fragment)
chain: ALGPFPAMENQVLVIRIKIPNSGAVDWTVHSGPQLLFRDVLDVIGQVLPEATTTAFEYEDEDGDRITVRSDEEMKAMLSYYYSTVMEQQVNGQLIEPLQIFPRA
modifications: biotin (Avitag, in vivo); a non-biotinylated form served as soluble competitor
